In experiment [1] the target is Biotinylated SUMO [SUMO: Q12306]. The experiment in a line: BLI. For orientation: In BLI a coated tip is dipped into the sample, and binding shifts an interference pattern.
Experiment [2] addresses Full-length human PARP2 isoform 2 (amino acids 1–570) (human) (UniProt Q9UGN5). The experiment in a line: ITC.
Experiment [3] addresses N-terminal region of PARP2 (NTR; aa 1–80) (human) (UniProt Q9UGN5). The experiment in a line: ITC.
For experiment [4], the target named is NTR-WGR construct of PARP2 (aa 1–205) (human) (UniProt Q9UGN5). The experiment in a line: ITC. For orientation: In ITC the heat of successive injections is recorded.
The target of experiment [5] is WGR-CAT construct of PARP2 (aa 81–570) (human) (UniProt Q9UGN5). The experiment in a line: ITC.
Experiment [6] deals with Full-length human PARP2 isoform 2 (amino acids 1–570) (human) (UniProt Q9UGN5). The experiment in a line: BLI.

Turning to “Full-length human PARP2 isoform 2 (amino acids 1–570) (from UniProt Q9UGN5-2 1-570) (enzyme)”, in experiment [1], the Kd (as a rule, the equilibrium constant for the complex coming apart) stood at 66.8 µM; the off-rate constant (koff) (usually the first-order rate constant of dissociation) was 0.301 s⁻¹; the kon (usually the rate constant with which the complex forms) was found to be 4500 M⁻¹ s⁻¹.
Consider “Small ubiquitin like modifier (SUMO) (from UniProt Q12306 1-101) (natural protein)”, for which the Kd was found to be 45.6 µM in experiment [2], 201 µM in experiment [3], 125 µM in experiment [4] and 1000 µM in experiment [5]. Also, in experiment [6], the IC50 – broadly, the midpoint of a concentration-inhibition curve – turned out to be 0.82 µM.

Values taken from doi:10.1101/2025.08.29.673013.
